# According to patent publication EP0901379B1:
# Biological target: human MIP-1α (human) (UniProt P10147)
# Assay: 125I-MIP-1α bound to cells with 200X molar excess M-T1, Exp. 1
# Sequence of UniProt P10147 (P10147 24-92 limits assumed): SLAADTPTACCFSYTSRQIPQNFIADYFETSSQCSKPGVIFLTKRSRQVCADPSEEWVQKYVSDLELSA
substance,measurement,value
myxoma T1 protein (M-T1),Surface Bound MIP-1α,978 cpm
